These results are taken from patent publication US20030039970, “Method for prognosing cancer and the proteins involved” (published 2003).

The target of series [1] is T1, TRAITS (TID-1/U19) (Rattus norvegicus, UniProt Q811X5 SEQ:1-262). Kind of series: EMSA; complex competed by 5x, 25x, 125x cold T-wt; poly[dI-dC] present. Particulars: tags: GST fusion (pGEX-2T, E. coli); label: 32P 5' end. An excerpt:
(§1) The binding of GST-TRAITS fusion protein to labeled T-box containing DNA forms a DNA-protein complex (C), which can be competed in the presence of indicated fold (5×, 25×, or 125×) molar excess of cold T-wt but not by cold T-mut (ACTgTA). A non-specific complex (*) in the presence of GST-TRAITS was also formed in the presence of GST only. Labeled free DNA (F) was also indicated. […] NIH3T3 cells were transiently transfected with empty vector (PM) or vectors expressing the full-length rat TRAITS (residues 1-262 of SEQ ID NO: 14), its N-terminal (residues 1-113 of SEQ ID NO: 14), or its C-terminal (residues 114-262 of SEQ ID NO: 14) plus pG5CAT reporter and pSV-β-gal for normalization. Assays were performed after 24 hours of transfection. The fold activation of CAT reporter is shown with S.E.M. Assays were performed in triplicate in two separate experiments.
(§2) T-wt: (5′-[…] GAAGCTTACGTCGCG-3′ SEQ ID NO: 33) and T-mut: (5′-[…] CGAAGCTTACGTCGCG-3′ SEQ ID NO: 34) were synthesized and amplified by PCR. T4 polynucleotide kinase (Promega) was used to label T-wt & T-mut by [γ-³²P] ATP (NEN). Recombinant GST-TRAITS fusion protein was incubated with […] poly [dI-dC] and EMSA was performed according to the protocol provided by Gel Shift Assay System (Promega).
In general terms: In EMSA bound probe runs differently from free probe, usually more slowly.

For series [2], the target named is T1, TRAITS (TID-1/U19). The series is described as follows: competition; cold T-mut up to 125x molar excess does not compete for labeled T-wt complex; legend prints ACTgTA but sequence has ACGTTA. Particulars: tags: GST fusion (pGEX-2T, E. coli).
Text: as §1, §2

T1 sequence (Q811X5 whole entry, the tested form may be a part): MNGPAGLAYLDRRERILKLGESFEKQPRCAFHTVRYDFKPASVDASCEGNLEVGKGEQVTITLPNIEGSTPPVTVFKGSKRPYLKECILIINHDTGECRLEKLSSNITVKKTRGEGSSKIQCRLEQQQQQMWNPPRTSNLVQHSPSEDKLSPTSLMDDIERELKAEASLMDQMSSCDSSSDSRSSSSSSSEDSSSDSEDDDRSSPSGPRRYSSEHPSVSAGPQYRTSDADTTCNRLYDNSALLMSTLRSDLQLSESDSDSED

B1: T-wt (T-box ACTTTA) (dsDNA)
DNA 1: GTCTGTCTGGATCCGAGGTGAGTACTGACTTTACACACGTCTTCCGAAGCTTACGTCGCG
DNA 2: CGCGACGTAAGCTTCGGAAGACGTGTGTAAAGTCAGTACTCACCTCGGATCCAGACAGAC
For B1, the binding result with TRAITS (TID-1/U19) [1] is on record as “binds”.

B2: T-mut (dsDNA)
DNA 1: GTCTGTCTGGATCCGAGGTGAGTACTGACGTTACACACGTCTTCCGAAGCTTACGTCGCG
DNA 2: CGCGACGTAAGCTTCGGAAGACGTGTGTAACGTCAGTACTCACCTCGGATCCAGACAGAC
As for B2, the binding result in the series with TRAITS (TID-1/U19) [2] is listed as “no binding”.
